Assays:
Grb2 SH2 = Grb2 SH2 (UniProt P62993); assay: SH2 binding enrichment of the phosphorylated peptide, bacterial display (enrichment ratio); higher = better substrate or ligand; peptides without Tyr show the background
SHP2-C SH2 = assay: as above
c-Src SH2 = assay: as above
AncSZ = assay: phosphorylation enrichment, bacterial display (enrichment ratio); higher = better substrate or ligand; peptides without Tyr show the background
EPHB2 = EPHB2 (UniProt P29323); assay: as above
MERTK = MERTK (UniProt Q12866); assay: as above
FGFR3 = FGFR3 (UniProt P22607); assay: as above
Jak2 = Jak2 (UniProt O60674); assay: as above
Fyn = Fyn (UniProt P06241); assay: as above
FGFR1 = FGFR1 (UniProt P11362); assay: as above
Fer (mouse) = assay: as above
EPHB1 = EPHB1 (UniProt P54762); assay: as above
Fes = Fes (UniProt P07332); assay: as above
Hck = Hck (UniProt P08631); assay: as above
c-Abl (mouse) = assay: as above
c-Src = assay: as above
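For SH2 binding enrichment of the phosphorylated peptide, bacterial display in this document: peptide library displayed on the E. coli surface as eCPX fusions, selected cells deep-sequenced, score is each peptide's frequency after selection divided by its frequency in the input.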
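For phosphorylation enrichment, bacterial display in this document: 11-residue human phosphosite peptides and single-mutation variants displayed on the E. coli surface, counted by deep sequencing, each peptide's frequency after selection divided by its frequency in the unselected input library; frequency after pTyr selection over input frequency; kinase dosed for 20-30% of maximal phosphorylation in three min.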

Sequence of Fes (P07332 whole entry, looked up): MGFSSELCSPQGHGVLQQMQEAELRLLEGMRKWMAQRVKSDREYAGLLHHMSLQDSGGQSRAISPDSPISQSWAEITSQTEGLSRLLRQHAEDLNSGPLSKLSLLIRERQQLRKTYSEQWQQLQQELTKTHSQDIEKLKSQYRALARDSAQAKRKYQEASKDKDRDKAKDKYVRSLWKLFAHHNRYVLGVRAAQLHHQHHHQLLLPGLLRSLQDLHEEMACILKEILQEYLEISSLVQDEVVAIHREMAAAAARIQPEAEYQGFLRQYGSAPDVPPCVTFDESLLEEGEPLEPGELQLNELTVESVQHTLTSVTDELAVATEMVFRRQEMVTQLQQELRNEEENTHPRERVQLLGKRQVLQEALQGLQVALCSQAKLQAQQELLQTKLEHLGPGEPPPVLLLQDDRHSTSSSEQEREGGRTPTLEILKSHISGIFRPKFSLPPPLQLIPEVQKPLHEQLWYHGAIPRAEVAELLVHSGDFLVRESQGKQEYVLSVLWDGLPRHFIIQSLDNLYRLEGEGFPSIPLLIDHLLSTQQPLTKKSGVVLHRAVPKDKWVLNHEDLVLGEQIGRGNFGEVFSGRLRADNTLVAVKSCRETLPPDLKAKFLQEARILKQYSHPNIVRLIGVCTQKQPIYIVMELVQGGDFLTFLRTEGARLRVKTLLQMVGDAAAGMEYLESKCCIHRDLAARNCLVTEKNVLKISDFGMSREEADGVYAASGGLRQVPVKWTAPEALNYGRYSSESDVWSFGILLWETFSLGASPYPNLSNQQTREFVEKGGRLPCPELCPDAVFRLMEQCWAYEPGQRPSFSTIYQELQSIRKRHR
Sequence of FGFR1 (P11362 whole entry, looked up): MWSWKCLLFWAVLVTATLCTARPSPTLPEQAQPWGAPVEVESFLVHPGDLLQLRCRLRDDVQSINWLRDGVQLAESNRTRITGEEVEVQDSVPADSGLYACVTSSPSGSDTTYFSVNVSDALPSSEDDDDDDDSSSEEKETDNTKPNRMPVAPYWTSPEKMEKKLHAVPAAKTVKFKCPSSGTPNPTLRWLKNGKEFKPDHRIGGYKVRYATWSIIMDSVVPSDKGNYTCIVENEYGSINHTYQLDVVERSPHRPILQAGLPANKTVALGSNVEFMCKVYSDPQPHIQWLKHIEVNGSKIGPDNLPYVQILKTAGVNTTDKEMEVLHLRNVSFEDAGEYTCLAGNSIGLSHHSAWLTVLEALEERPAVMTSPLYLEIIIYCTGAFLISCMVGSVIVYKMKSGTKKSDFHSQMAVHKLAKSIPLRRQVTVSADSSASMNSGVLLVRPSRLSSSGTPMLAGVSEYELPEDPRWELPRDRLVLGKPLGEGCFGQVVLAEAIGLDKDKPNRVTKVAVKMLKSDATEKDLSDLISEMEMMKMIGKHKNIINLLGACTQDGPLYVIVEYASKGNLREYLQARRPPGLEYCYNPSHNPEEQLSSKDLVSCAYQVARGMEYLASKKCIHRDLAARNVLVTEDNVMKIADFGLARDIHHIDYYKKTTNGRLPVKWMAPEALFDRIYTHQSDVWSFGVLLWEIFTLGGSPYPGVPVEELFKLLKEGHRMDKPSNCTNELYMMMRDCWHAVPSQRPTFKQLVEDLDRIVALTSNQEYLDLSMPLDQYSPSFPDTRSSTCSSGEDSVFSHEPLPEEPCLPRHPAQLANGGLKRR
Sequence of Hck (P08631 whole entry, looked up): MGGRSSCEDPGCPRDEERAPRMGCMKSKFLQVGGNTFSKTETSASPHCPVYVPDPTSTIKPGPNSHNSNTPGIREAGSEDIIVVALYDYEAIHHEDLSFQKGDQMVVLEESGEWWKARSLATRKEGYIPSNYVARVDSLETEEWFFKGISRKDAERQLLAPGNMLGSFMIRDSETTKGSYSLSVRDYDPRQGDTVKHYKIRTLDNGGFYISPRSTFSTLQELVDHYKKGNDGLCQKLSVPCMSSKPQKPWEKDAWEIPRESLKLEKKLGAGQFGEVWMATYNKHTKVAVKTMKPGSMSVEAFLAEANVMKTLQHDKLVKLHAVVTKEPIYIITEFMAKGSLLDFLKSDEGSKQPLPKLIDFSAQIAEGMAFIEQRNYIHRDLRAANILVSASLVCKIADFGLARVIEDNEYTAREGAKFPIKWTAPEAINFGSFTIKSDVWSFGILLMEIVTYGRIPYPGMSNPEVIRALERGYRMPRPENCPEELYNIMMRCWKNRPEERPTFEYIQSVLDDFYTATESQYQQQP
Sequence of Fyn (P06241 whole entry, looked up): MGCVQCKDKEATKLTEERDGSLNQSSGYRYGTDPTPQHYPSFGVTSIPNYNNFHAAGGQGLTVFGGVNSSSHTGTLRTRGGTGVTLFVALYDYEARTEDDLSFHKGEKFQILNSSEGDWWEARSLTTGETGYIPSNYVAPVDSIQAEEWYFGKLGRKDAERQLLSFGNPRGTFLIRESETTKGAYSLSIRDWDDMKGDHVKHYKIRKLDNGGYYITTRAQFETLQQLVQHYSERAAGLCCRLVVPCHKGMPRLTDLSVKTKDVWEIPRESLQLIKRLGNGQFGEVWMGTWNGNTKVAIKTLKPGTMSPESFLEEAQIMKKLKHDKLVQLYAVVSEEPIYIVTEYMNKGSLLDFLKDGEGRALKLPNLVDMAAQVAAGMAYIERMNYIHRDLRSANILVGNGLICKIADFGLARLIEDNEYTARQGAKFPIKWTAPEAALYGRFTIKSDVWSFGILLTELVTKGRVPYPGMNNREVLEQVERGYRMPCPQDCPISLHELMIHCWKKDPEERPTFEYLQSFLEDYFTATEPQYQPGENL
Sequence of MERTK (Q12866 whole entry, looked up): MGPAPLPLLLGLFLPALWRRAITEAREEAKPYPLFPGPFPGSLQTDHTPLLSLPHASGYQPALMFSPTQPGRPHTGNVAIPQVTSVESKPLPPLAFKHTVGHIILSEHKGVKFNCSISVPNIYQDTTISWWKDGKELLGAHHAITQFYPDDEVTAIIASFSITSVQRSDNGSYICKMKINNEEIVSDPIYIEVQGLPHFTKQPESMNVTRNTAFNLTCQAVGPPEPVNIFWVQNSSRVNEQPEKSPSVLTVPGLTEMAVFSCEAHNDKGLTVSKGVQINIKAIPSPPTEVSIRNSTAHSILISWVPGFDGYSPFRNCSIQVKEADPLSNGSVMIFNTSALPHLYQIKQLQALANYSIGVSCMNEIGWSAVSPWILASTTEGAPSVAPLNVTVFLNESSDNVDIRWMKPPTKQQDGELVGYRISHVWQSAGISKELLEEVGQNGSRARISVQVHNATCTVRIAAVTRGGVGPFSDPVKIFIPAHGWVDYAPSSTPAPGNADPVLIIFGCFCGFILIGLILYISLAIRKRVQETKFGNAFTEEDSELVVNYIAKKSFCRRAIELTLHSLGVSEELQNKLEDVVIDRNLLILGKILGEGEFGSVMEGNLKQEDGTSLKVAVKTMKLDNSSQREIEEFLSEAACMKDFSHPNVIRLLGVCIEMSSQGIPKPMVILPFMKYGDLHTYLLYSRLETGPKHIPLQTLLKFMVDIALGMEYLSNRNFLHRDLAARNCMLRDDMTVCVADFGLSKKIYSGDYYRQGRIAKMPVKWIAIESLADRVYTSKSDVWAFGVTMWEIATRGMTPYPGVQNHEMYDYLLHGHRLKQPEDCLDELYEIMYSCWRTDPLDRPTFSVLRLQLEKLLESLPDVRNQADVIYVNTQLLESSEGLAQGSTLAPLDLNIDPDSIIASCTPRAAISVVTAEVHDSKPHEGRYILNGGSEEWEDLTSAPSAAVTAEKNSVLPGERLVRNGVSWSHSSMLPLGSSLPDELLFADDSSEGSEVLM
Sequence of EPHB2 (P29323 whole entry, looked up): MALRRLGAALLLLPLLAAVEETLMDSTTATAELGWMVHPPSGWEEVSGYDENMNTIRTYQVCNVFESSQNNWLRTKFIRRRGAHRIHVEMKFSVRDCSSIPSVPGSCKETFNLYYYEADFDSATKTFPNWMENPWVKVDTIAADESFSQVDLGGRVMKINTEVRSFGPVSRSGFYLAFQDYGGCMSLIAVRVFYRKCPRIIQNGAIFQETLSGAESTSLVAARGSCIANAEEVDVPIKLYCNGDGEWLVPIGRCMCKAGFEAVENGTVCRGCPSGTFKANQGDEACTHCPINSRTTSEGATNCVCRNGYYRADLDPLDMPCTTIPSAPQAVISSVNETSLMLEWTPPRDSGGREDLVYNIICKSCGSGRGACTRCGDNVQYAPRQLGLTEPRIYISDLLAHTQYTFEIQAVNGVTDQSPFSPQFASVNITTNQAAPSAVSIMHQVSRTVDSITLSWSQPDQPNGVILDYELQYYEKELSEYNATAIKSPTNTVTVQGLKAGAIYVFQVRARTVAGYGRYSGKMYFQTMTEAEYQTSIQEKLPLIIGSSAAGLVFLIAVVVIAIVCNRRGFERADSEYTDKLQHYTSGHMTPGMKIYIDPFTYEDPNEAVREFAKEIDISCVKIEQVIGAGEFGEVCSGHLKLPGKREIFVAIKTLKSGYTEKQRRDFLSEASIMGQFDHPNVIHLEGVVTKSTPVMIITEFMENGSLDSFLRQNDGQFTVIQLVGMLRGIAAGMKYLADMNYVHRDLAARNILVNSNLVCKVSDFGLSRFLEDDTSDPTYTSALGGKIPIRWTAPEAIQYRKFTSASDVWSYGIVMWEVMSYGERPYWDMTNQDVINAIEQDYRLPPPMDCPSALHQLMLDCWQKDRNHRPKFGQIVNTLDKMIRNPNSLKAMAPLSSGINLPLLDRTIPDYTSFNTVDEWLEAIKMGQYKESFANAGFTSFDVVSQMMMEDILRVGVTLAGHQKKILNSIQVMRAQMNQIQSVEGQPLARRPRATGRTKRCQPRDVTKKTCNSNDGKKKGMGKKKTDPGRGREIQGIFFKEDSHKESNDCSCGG

Row | Sequence | SH2 binding enrichment (Grb2 SH2) | SH2 binding enrichment (SHP2-C SH2) | SH2 binding enrichment (c-Src SH2) | phosphorylation enrichment (AncSZ) | phosphorylation enrichment (EPHB2) | phosphorylation enrichment (MERTK) | phosphorylation enrichment (FGFR3) | phosphorylation enrichment (Jak2) | phosphorylation enrichment (Fyn) | phosphorylation enrichment (FGFR1) | phosphorylation enrichment (Fer (mouse)) | phosphorylation enrichment (EPHB1) | phosphorylation enrichment (Fes) | phosphorylation enrichment (Hck) | phosphorylation enrichment (c-Abl (mouse)) | phosphorylation enrichment (c-Src)
1 | RAHARYCADAR [ACOT4_Y52] | 0.92 | 0.746 | 0.656 | 0.614 | 0.676 | 0.444 | 0.633 | 0.533 | 0.392 | 0.406 | 0.333 | 0.444 | 1.08 | 0.54 | 0.689 | 0.419
2 | GEIQEYGAPSD [ABCC1_Y1508] | 0.745 | 0.648 | 0.507 | 1.07 | 0.544 | 0.476 | 0.662 | 0.891 | 0.506 | 0.523 | 0.481 | 0.493 | 1.05 | 0.505 | 0.757 | 0.438
3 | PLTRSYIREKV [CYP2C8_Y243_A238P] | 0.923 | 0.904 | 0.351 | 0.582 | 0.484 | 0.406 | 0.48 | 0.591 | 0.474 | 0.341 | 0.262 | 0.276 | 0.413 | 0.312 | 0.305 | 0.448
4 | GDAMLYYPSVS [GPR143_Y177_A173D] | 0.825 | 0.759 | 0.773 | 0.95 | 0.702 | 4.84 | 4.78 | 3.08 | 0.957 | 5.91 | 1.27 | 0.763 | 0.736 | 2.77 | 1.36 | 2.22
5 | GFIISYREEEQ | 0.672 | 0.633 | 0.581 | 1.41 | 0.5 | 0.313 | 0.729 | 1.34 | 0.488 | 0.478 | 0.644 | 0.495 | 1.27 | 0.456 | 0.598 | 0.399
6 | IMITDYLLLFR [INSR_Y87] | 1.38 | 1.38 | 1.04 | 1.21 | 0.647 | 0.399 | 1.2 | 1.55 | 0.467 | 1.36 | 0.513 | 0.678 | 1.18 | 0.502 | 0.829 | 0.481
7 | PQGVRYTYTID [DCX_Y103_I104T] | 0.779 | 3.15 | 1.55 | 1.05 | 0.495 | 0.338 | 0.784 | 1.05 | 0.587 | 0.57 | 0.499 | 0.702 | 1.36 | 0.601 | 0.605 | 0.634
8 | FLTQHHDAKPQ [ANG_Y38_Y38H] | 0.876 | 0.669 | 0.604 | 0.497 | 0.381 | 0.44 | 0.451 | 0.464 | 0.279 | 0.447 | 0.468 | 0.33 | 0.742 | 0.353 | 0.552 | 0.396
9 | DEGVNHFMSKG [FBXO8_Y156_Y156H] | 0.718 | 0.778 | 0.464 | 0.61 | 0.424 | 0.324 | 0.504 | 0.42 | 0.443 | 0.436 | 0.357 | 0.433 | 0.64 | 0.364 | 0.516 | 0.297
10 | KLASTYREAAT [DEAF1_Y483_H479L] | 0.787 | 0.508 | 0.418 | 0.353 | 0.337 | 0.344 | 0.351 | 0.309 | 0.371 | 0.352 | 0.267 | 0.343 | 0.494 | 0.318 | 0.432 | 0.273
11 | TINPIHEHVGY [CHN1_Y143_Y143H] | 0.823 | 0.87 | 0.58 | 0.679 | 0.433 | 0.446 | 0.414 | 0.864 | 0.377 | 0.426 | 0.757 | 0.674 | 0.727 | 0.474 | 0.57 | 0.423
12 | RQNQEYEILMD [KRT39_Y379_L383M] | 0.843 | 0.556 | 0.835 | 1.53 | 1.58 | 0.503 | 0.847 | 1.66 | 0.815 | 0.698 | 0.705 | 1.79 | 1.45 | 0.695 | 0.994 | 0.861
13 | TDLAYYLVCKG [ASL_Y376_R379C] | 0.959 | 0.829 | 0.461 | 1.46 | 0.66 | 0.79 | 2.33 | 1.74 | 0.689 | 2.39 | 0.581 | 0.883 | 1.57 | 0.75 | 0.903 | 0.825
14 | FSEVRYVKEPF [HIPK4_Y170_YF] | 1.03 | 0.783 | 0.487 | 0.748 | 0.527 | 0.414 | 0.884 | 0.584 | 0.513 | 0.586 | 0.505 | 0.403 | 0.831 | 0.483 | 0.676 | 0.44
15 | GVTLLCFGRFN [ADGRD1_Y85_Y85C_YF] | 0.922 | 0.863 | 0.465 | 1.14 | 0.669 | 0.384 | 0.885 | 1.09 | 0.443 | 0.524 | 0.498 | 0.732 | 1.53 | 0.587 | 0.9 | 0.388
16 | RICRRYCQVLN [IQCF1_Y144_R141C] | 0.537 | 0.76 | 0.329 | 1.03 | 0.624 | 0.758 | 0.66 | 0.817 | 0.748 | 0.857 | 0.654 | 0.676 | 1.18 | 0.7 | 0.701 | 0.738
17 | NKKFHYRELPV [ERN2_Y860_H858Y_YF] | 0.877 | 1.06 | 0.678 | 0.459 | 0.351 | 0.306 | 0.45 | 0.372 | 0.419 | 0.368 | 0.374 | 0.362 | 0.508 | 0.332 | 0.407 | 0.266
18 | ALRASYTPSPV [ESS2_Y418_A423V] | 0.67 | 0.557 | 0.418 | 0.847 | 0.53 | 0.435 | 0.502 | 0.909 | 0.39 | 0.32 | 0.424 | 0.366 | 0.723 | 0.458 | 0.945 | 0.678
19 | RLLVVYPSTQR [HBB_Y36_W38S] | 2.08 | 2.26 | 1.47 | 1.19 | 0.931 | 0.753 | 0.94 | 1.04 | 0.802 | 1.07 | 0.7 | 0.602 | 1.75 | 1.17 | 0.899 | 0.646
20 | GFITSYREEEQ | 0.681 | 0.722 | 0.502 | 1.19 | 0.775 | 0.489 | 0.631 | 1.04 | 0.494 | 0.468 | 0.488 | 0.63 | 1.14 | 0.517 | 0.769 | 0.48
21 | AHDGEYGAEAL [HBA1_Y25_A22D] | 0.83 | 0.563 | 0.493 | 0.97 | 0.62 | 0.451 | 0.645 | 0.819 | 0.552 | 0.513 | 0.534 | 0.556 | 1.08 | 0.445 | 0.608 | 0.424

More lines, main results first:

Row | SH2 binding enrichment (Grb2 SH2) | SH2 binding enrichment (SHP2-C SH2) | SH2 binding enrichment (c-Src SH2) | Sequence | phosphorylation enrichment (AncSZ) | phosphorylation enrichment (EPHB2) | phosphorylation enrichment (MERTK) | phosphorylation enrichment (FGFR3) | phosphorylation enrichment (Jak2) | phosphorylation enrichment (Fyn) | phosphorylation enrichment (FGFR1) | phosphorylation enrichment (Fer (mouse)) | phosphorylation enrichment (EPHB1) | phosphorylation enrichment (Fes) | phosphorylation enrichment (Hck) | phosphorylation enrichment (c-Abl (mouse)) | phosphorylation enrichment (c-Src)
22 | 0.793 | 0.922 | 0.473 | QCTSAYLLQPE [NANS_Y188_P189L] | 1.41 | 0.727 | 0.785 | 1.21 | 1.19 | 1.01 | 0.733 | 0.611 | 0.555 | 1.49 | 0.596 | 1.24 | 1.4
23 | 0.965 | 0.693 | 4.4 | ARSHIYTLASC [MEFV_Y741_F743L] | 1.05 | 0.58 | 1.17 | 0.68 | 0.802 | 2.13 | 0.541 | 0.657 | 0.598 | 1.13 | 0.95 | 0.803 | 2.07
24 | 0.767 | 0.616 | 0.613 | MDDPRYGVCPL [ZNF100_Y6_M8V] | 1.15 | 0.632 | 0.579 | 0.75 | 1.46 | 0.609 | 0.491 | 0.56 | 0.673 | 1.27 | 0.715 | 0.918 | 0.527
25 | 0.689 | 0.795 | 0.522 | SLALFYRKVYH [RBL1_Y792] | 1.23 | 0.643 | 0.408 | 0.776 | 1.14 | 0.481 | 0.575 | 0.566 | 0.667 | 1.23 | 0.518 | 0.593 | 0.379
26 | 0.817 | 0.62 | 0.463 | IRTDAYVPAMT [RPE65_Y89_R91P] | 0.516 | 0.336 | 0.367 | 0.455 | 0.678 | 0.302 | 0.399 | 0.425 | 0.33 | 0.612 | 0.495 | 0.594 | 0.401
27 | 0.827 | 0.664 | 0.5 | NKEAICSGFIR [SMCHD1_Y283_Y283C_YF] | 0.693 | 0.398 | 0.455 | 0.53 | 0.802 | 0.39 | 0.496 | 0.467 | 0.448 | 0.952 | 0.501 | 0.741 | 0.451
28 | 1.13 | 1.55 | 0.774 | SWSTSYSGFRF [NKAPL_Y91_YF] | 1.17 | 0.663 | 0.535 | 0.719 | 0.821 | 0.739 | 0.637 | 1.61 | 0.588 | 1.38 | 0.858 | 0.728 | 1.69
29 | 1.21 | 2.06 | 4.31 | CTTLHYNYMCN [TP53_Y234_I232L] | 0.858 | 0.618 | 0.558 | 0.745 | 0.827 | 0.492 | 0.811 | 1.41 | 0.808 | 1.01 | 0.547 | 0.675 | 0.508
30 | 1.04 | 0.963 | 1.03 | IMFTSYFLTIL [TAS2R16_Y239_V235M] | 1.34 | 0.555 | 0.476 | 0.922 | 2.38 | 0.622 | 0.732 | 0.579 | 0.755 | 1.52 | 0.623 | 0.955 | 0.578
31 | 1.12 | 1.11 | 0.829 | VVQGIYGYHHY [UFSP2_Y285] | 0.923 | 8.76 | 11.3 | 0.575 | 0.683 | 11.8 | 0.662 | 16.7 | 3.24 | 1.04 | 10.5 | 7.67 | 8.86
32 | 0.953 | 0.79 | 0.616 | ATVRPYRPFII [LRP5_Y1528_A1525V_YF] | 0.653 | 0.336 | 0.395 | 0.459 | 0.644 | 0.397 | 0.418 | 0.406 | 0.438 | 0.61 | 0.462 | 0.505 | 0.493
33 | 1.08 | 1.5 | 1.67 | AIKSFYAALID [RYR1_Y2426_M2423K] | 0.882 | 1.23 | 2.53 | 0.628 | 0.667 | 0.504 | 0.553 | 0.479 | 1.25 | 0.981 | 0.758 | 0.719 | 0.481

Source: the supplement of paper PMC10065799, “High-throughput profiling of sequence recognition by tyrosine kinases and SH2 domains using bacterial peptide display” (eLife, 2023)
